Laboratory results from the nanobody polyreactivity screen of Harvey et al. (2022).

Experiment: yeast display, Sf9 membrane polyspecificity reagent, FACS + sequencing; frameworks hold sequencing errors
In short: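 In a synthetic yeast display library (Saccharomyces cerevisiae BJ5465), nanobody expression was induced with galactose for 36–48 hours. FACS gates were set low and high (top ~1%) using anti-HA fluorescence for expression and streptavidin fluorescence for binding of the Sf9 membrane reagent. Each polyreactivity label is drawn from the gate of origin.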

Row | Sequence | polyreactivity (PSR sort gate)
1 | QVQLVETGGGLVQAGGSLRLSCAASARTFVNYAMGWYRQAPGKEREFVAAITNGGRTNYADSVKGRFTISRDNAKNTVYLQMNSLKQEDTAVYYCAARYRFGGIRRFNYWGQGTQVTVSS | high polyreactivity
2 | QVQLVESGGGFVQAGGSLRLSCAASGLSFNFNAMGWYRQAPGKERELVAAIDSGGDTNYADSVKGRFSISRDNEKNTVYLQMNSLKPEDTAVYYCNTDRYPYAFEYWGQGTQVTVSS | low polyreactivity
3 | QVQLVESGGGLVQAGGSLRLSCAASGLIFAWYAMGWYRQAPGKERELVAAITGTGSSTYYADSVKGRFTISRDNAKNTVYLQMNSLKPEDTAVYYCNRGYFNSRTPTFDYWGQGTQVTVSS | low polyreactivity
4 | QVQLVESGGGLVQAGGSLRLSCAASGRIFLFYAMGWYRTAPGKERELVAGIRSGGSTNYADSVKGRFTISRDNAKNTVYLQMNSLKQEDTAVYYSAAASYFVYPRLEGYWGQGTQVTVSS | low polyreactivity
5 | QVKLVESGGGLVQAGGSLRLSCAASGFIFLRYGMGWYRQAPGKERELVASIDSTGGSTYADSVKGRFTISRDNAKNTVYLKMNSLKPVDTAVYFCAAAFYIVSERDYCGQGTQVTVSS | low polyreactivity
6 | QVQLVESGGGLVQAGGSLRLSCAASGLTFGAYAMGWYRQAPRKEREFVAAITYSGGSSNYADSVKGRFTISRDNAKNTVYLQMNSLKPEDTAVYYCNAGYYSPWAFYPYDYWGQGTQVTVSS | high polyreactivity
7 | QVLLQESGGGLVQAVGSLRLGCAASGTISPAYDIGRNHLAPGREREFVAAMTYGTNSYYSDSVKGRFTMSRDNAKNTVFLKMTSLKTEDTAVFYFSATGGYNCAHDYWGQGTQVTVSS | low polyreactivity
8 | QVQLVESGGGLVQAGGSLRLSCAASGRTFGQNAMGWYRQAPGKERELVAAISASGSNTYYADSVKGRFTISRDNAKNTVYVQMNSLKPEDTAVYYCAKQVYRPGQQSRYDYWGQGTQVTVSS | low polyreactivity
9 | QVQLVESGGGLVQAGGSLRLSCAASGFTFRWYAMGWYRQAPGKERELVASISRRGGSTYYADSVKGRFTISRDNAKNTVYLQMNSLKPEDTAVYYCAADYYDYWGQGTQVTVSS | high polyreactivity
10 | QVQLVESGGGLVQAGGSIRLSCAASGSIFSWYAMGWYSQAPGKERELVAAITSDGGTNYADSVKGRFTISRDNAMNTVYLQMNTLKPEDTAVYYCAADYWYSWRRSHYAHRYGYWGQGTQVTVSS | low polyreactivity
11 | QVQLVESGGGLVQAGGRLRLICAASGFIFWKNAMGWYRQSPGKQRELVAAISTRGGSTYYADSVKGRFTISRDNAKNSVYLQMNSLKPEDTAVYYCNKEWYQYKHNYWGQGTQVSVSS | low polyreactivity
12 | QVQLVESGGGLVQAGGSLRLSCAASGRTFRINAMGWYRQAPGKERELVAAITRGDTNYADSVKGRFTISRDNAKNTVYLQMNSLKPEDTAVYYCNAELSFRYPVFRELDYWGQGTQVTVSS | low polyreactivity
13 | QVQLVESGGGLVQAGGSLRLSCAASGSILSTYAKGWYRQAPGKERELVASISSNAGSTYYADSVKGRFTISRDNAKNTVYLQMNSLKPEDTAVYYCNKVYGGGTYDYWGQGTQVTVSS | low polyreactivity
14 | QVQLVESVGGLVQAGGSLRLSCAASGSIFYPNAMGLYRQAPGKERELVAAISSSGGTNYADSVKGRFTISRDNAKNTVYLQMNSLKPEDTAVYYCNARDKVRYRYSRMDYWGQGTQVTVSS | low polyreactivity
15 | QVQLVESGGGLVQAGGSLRVCCAASGRIFGNYAMGWYRQAPGKDRELVAAISGGGSTYYADSVKGRFTISRDNAKNTVYVQMNSLKPEDTAVYYCAAKPTYRGYGYGSWGQGTQVTVSS | low polyreactivity
16 | QVQLVESGGGLVQAGGSLRLSCAASGRIFSQNAMGWYRQAPGKERELVAVISRGGSTNYADSVKGRFTISRDNAKNTVYLQMNSLKPEDTAVYYCAADYAYIRSVWKWFIGDYWGQGTQVTVSS | low polyreactivity
17 | QVQLVESGGGLVQAGGSLRLSCAASGSTFYLNAMGWYRKAHGKERELVAPINGSGGSTYADSVKGRFTISRDNAKNTVYLQLHSLKPEDTAVYYCAADGTGYPGDSYPGMDYDYWGQVTQVTVSS | low polyreactivity
18 | QVQLVESGGGLVQAGGSLRLSCAASGRIFYFNAKGGYRQAPGKERELVAAIRNDTRTYYADSVKGRFTISRDNAKNTVYLQLNSLKPEDTAVYYCAARVYFSVITPIKYNYWGQGTQVTVSS | high polyreactivity
19 | QVQLVESGGGLVQAGGSLRLSCAASGFIFTSYAMGWYRQAPGKERELVAAITDGGSTNYADSVKGRFTISRDNAKNTVYLQMNSLKPEDTAVFYCAADGFKTVLPEYDYWGQGTQVTVSS | low polyreactivity
20 | QVHLVESGGGLVQAGGSLRLTCAASGLTFIRYAMGCYRQAPGKERELVAAISSYGGTTYYADSVKGRFTISRDKAKNTVYLQMISLKPEDTSVYYCAAVLTYYRGSTWTFSGFAYDHWGQGTQVTVSS | high polyreactivity
21 | QVQLVESGGGLVQAGGSLRLSCAASGRIFGAYAMGWYRQAPGKERELVASITGRGTSTYYADSVKGRFTISRDNAKNTVYLQMNSLKPEDSAVYYCAADKTVRSSNYDYWGQGTQVTVSS | low polyreactivity
22 | QVQLVESGGGLVQAGGSLRFSCAASGSIFQHYAMGWYRQAPGKERELVAAISWSGGSTYYADSVKGRFSISRDNAKNTVYLQMNSLKPEDTAVYYCAATKRRFVKFDYWGQGTQVTVSS | low polyreactivity

Row | Sequence | polyreactivity (PSR sort gate)
23 | QVQLVESGGGLVQAGGSLRLSCAASGSIIDWNAMGWYRQAPGKERELVAVISWGGGSTYADSVKGRFTISRDNAKNTVYLQMNSLKPEDTAVYNCNKEPIYYPVSDYDYWGQGTQVTVSS | low polyreactivity
24 | QVQLVESGGGLVQAGGSLRLSCAASGRIFPSYAMGWYRQAPGKERELVAAISRSGGRTYYADSVKGRFTISRDNAKNTVYLQMNSLKPEDTAVYYCYPYYIASTFDYWGQGTQVTVSS | high polyreactivity
25 | QVQLVESGGGLVQAGGSLRLSCAASGSIFRTYAMGWYRQAHGKETELVAAITRSGGTTYYADSVKGRFTISRDNAKNTVYLQMNSLKPEDTAVYFCNAQGYWYKGRRRGDYWGQGTQVTVSS | high polyreactivity
26 | QVQLVESGGGLVQAGGSLRLSCAASGRIFKRYAMGWYRQAPGKERELVAAIRTSDGITYYADSVKGRFTISRDNAKNTVYLQMNSLKPEDTAVYYCNADLSKAERWGQGTQVTVSS | low polyreactivity
27 | QVQLVESGGGLVQAGGSLRLSCAASGIIFTRYVMGWYRQAPGKQRELVAVISRRGGTTYYADSVKGRFTISRDNAKNTVYLQMNSLKPEVTAVYYCNTDGYRYPGSGINYYYWGQGTQVTVSS | high polyreactivity
28 | QVQLVESGGGLVQAGGSLRLSCAASGSILFGYGMGWYRQAPGKERELVATITTSGGTYYADSVKGRFTISRDNAKNTVYLQMNSLKPEDTAVYYCAATAAALDGNTIMYYWGQGTQVTVSS | low polyreactivity
29 | QVQLVESGGGLVQAGGSLRLSCAASGITFDEYAMGWYRQAPGKERELVAVISRSGGTTYYADSVKGRFTISRDNAKNTVYLQMNSLKPEDTAVYYCNARRWGPPGYYWGQGTQVTVSS | high polyreactivity
30 | QVQLVESGGGLVQAGGSLRLSCAASGSTFKYYVMGWYRQAPGKEREFVAAITLRGGRTYYADSVKGRFTISRDNAKNTVYLQMNSLKPEDTAVYYCNAAYYLGWAHGTGRVEYDYWGQGTQVTVSS | high polyreactivity
31 | QVQLVESGGGLVQAGGSLRLSCAASGYTFYVYAMGCYRQAPGKERELVASITSSTSTKYADSVKGRFTISRDNANNTVYLQMNSLKPEDTAVYYCAADSRVPEYRSPKNDYWGQGTQVTVSS | low polyreactivity
32 | QVQLVESGGGLVQAGGSLRLSCAASGSTFVINAMGWYRQAPGKERELVADIDYRGGSTNYADSVKGRFTISRDNAKNTVYLQMNSLKPEDTAVYYCNKRYVIRRRGYDYWGQGTQVTVSS | low polyreactivity
33 | QVQLVESGGGLVQAGGSLRLSCAASGRTFKVYAMGWYRQAPGKERELVASINRGSSTYADSVKGRFTISRDNAKNTVYLQMNSLKPEDTAVYYCAARWWRQSRYYYWGQGTQVTVSS | high polyreactivity
34 | QVQLVESGGGLVQAGGSLRLSCAASGSTFQSNAMGWYRQAPGKERELVATISWSGGITYADSVKGRFTISRDNAKNTVYLQMNSLKPEDNAVHYFTDPDFDYWGQGTQVTLSS | low polyreactivity
35 | QVQLLESGGGLVQAGGSLRLSCAASGRTFRSYAMGWYRQAPGKERELVAAISRSDGSTYYAESVKVRFTISRDNAKNTVYLQMNSLKPEDTAVYYCARSLYASSYLMYYWGQGTQVTVSS | high polyreactivity
36 | QVQLVESGGCLVQAGGSLRLSCASSGRIFRGYAMGWSRQAPGKERELVAVISYSGTRTYYADSVKGRFTNSRDIAKNTVYLQMNSLKPEETAVYYCNARANGFKDGYWGQGTQVTVSA | high polyreactivity
37 | QVQLVESGGGLVQAGGSLRLSCAASGRTFWRYAMGWYRQAPGKERELVADISNSDTSTYYADSVKGRFTISRDNAKNSVYLQMKSLKPEDTAVYYCAARPFRFRLSDKYNYWGQGTQVTVSS | high polyreactivity
38 | QVQLVESGGGLVQAGGSLRLSCAASGSILYYYTMGWYRQAPGKERELVAAINTSGGITYYADSVKGRFTISRDNAKNTVYLQMNSLKPEDTAVYYCAAEGPEIKYYYWGQGTQVTVSL | low polyreactivity
39 | QVQLVESGGGLVQAGGSLRLSCAASGRILYSYAMGWYRQAPGKERELVAAISSTGSTYYADSVKGRFTISRDNAKNTVYLQMNSLKPEDTAVYYCAATFFPYQVHHYYYWGQGTQVTVSS | low polyreactivity
40 | QVQLVESGGGLVQAGGSLRLSCAASGRIFYGNTMGWYRQAPGKERELVAAITWRGGSTYYADSVKGRFTISRDNAKNTVYLQMNSLKPEVTAVYYCAAVSYRGRGYWGQGTQVTVSS | high polyreactivity
41 | QVQLVETGGGLVQAGGSLRLSCAASGRTFGHNDMGWSRQAPGKERELVATISSDGSTNYADSVKGRFTISRDNAKNTVYLQMNSLKPEDTAVYYCAKVYQYVEYDYWGQGTQVTVSS | low polyreactivity
42 | QVQRVESGGGLVQAGGSLRLSCAASGSIFRFYAMGWYRQARGKERELVAAITSGGSTNYADSVKGRFTISRDNAKNTVFLQMKSLKPEDTAVYYFNAGLFYKPQYGYWGQGTQVTVSS | high polyreactivity
43 | QVQLEESGGGLVQAGGSLRLSCAASGSIFRYYAMGWYRQAPGKERELVAVITRGGSTYYADSVKGRFTISRDNAKNTVYLQMNSLKPEDTAVYYCAADYWPAGLDRGYWGQGTQVTVSS | low polyreactivity
